B1: TPR t1 (parent)
chain: GACCAAUCUGCCCUCAGAGCUCGAGAACAUCUUCGGAUGCAGAGGAGGCAGGCUUCGGUGGCGCGAUAGCGCCAACGUCCUCAACCUCCAAUGCAUCCCACCACAUGAUGAUGCCUGAAGAGCCUUGGUUUUUUG

Variants of: B1
Experiment: polymerase ribozyme fitness, log enrichment relative to wild type (log ratio); higher = more active; in vitro selection for triplet polymerase activity
Outline: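 Mutant libraries of each subunit of a heterodimeric triplet polymerase ribozyme were built by PCR and transcribed. Each library went through one round of in vitro selection in triplicate: annealing with biotinylated primer, partner subunit and triplets, frozen incubation at −7 °C, gel excision of extended constructs, streptavidin-bead capture and RT-PCR. Input and output libraries were Illumina-sequenced; only genotypes with ≥10 input reads and ≥1 read per output were kept. Fitness is log2(genotype enrichment/wild-type enrichment), using inverse-variance-weighted replicate averages.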

Row | Variant | polymerase ribozyme fitness (log ratio)
1 | C40A C72A A100C U132C | -2.7
2 | U38A C101U G117C | -4.18
3 | C40A G42U G45U C56G C73U | -4.17
4 | C40A C89G U106G C123U | -5.55
5 | G39A G113C | -2.69
6 | G39U A41U | -2.97
7 | U38G G69A U112A | -4.05
8 | C40G A46C G48U C73G C124G | -5.04
9 | G39U C62U C99U | -5.08
10 | C40U A83G G128A U129G | -3.53
11 | C40A A90G C123U | 0.623
12 | G39U G63U | -1.63
13 | C40A G42U G77C | -2.77
14 | C40A G63A G128U | -4.66
15 | G39A G57U C80A A121C | 0.47
16 | G39U G69U C73A C124U | 0.671
17 | C40A G63A | -2.68
18 | C40A G63U | -3.37
19 | G39U A41U A95C G117U | -4.57
20 | C40U A46G U78G | -0.597
21 | C40U C99U | -3.93
22 | C40U C99A | -4.45
23 | U38C G44U A91U G120U | -2.19
24 | G39A A50G C79A | -2.95

Row | Variant | polymerase ribozyme fitness (log ratio)
25 | C40U C124G | 1.52
26 | C40U A43U A90G G113U | -3.26
27 | U38C C64A | -6.78
28 | G39A C79A C114G A121C | -4.29
29 | G39A C40G | -1.68
30 | C40G G77A C97U | -4.09
31 | C40A U59A G60A | -0.777
32 | C40G C72G C73A U78G | -4.57
33 | U38C C40U A46U U55A C73U | -3.3
34 | C40G C82U U106A | -1.73
35 | C40G G44C C72A U78G C94G A121C G128U | -6.15
36 | G39U C53A G63U U126A | -5.66
37 | G39U G93A C123A | -1.36
38 | C40A C86U | -1.9
39 | C40U A90G C102G | -4.16
40 | C40G G48U C82A | -2.43
41 | U38G A83G | -1.98
42 | G39U C70A | -2.96
43 | G39A G44A U78C | -1.89
44 | C40A C56U | -0.58
45 | C40U C62U | -0.882
46 | C40U C73G C123G U132A | 0.0747
47 | C40G G61C A118U | -1.55
48 | G39U C40A A43G C56G C104U U130C | -4.61

Row | Variant | polymerase ribozyme fitness (log ratio)
49 | G39A C70G | -3.16
50 | G39C G110A | -1.82
51 | U38G C49U C80G | -4.88
52 | C40U C80G | -5.42
53 | U38G C79G | -2.67
54 | C40U C56G G63C | -3.69
55 | C40A G63U C79A U130G | -4.83
56 | C40A A43U | -2.77
57 | U38G G44A G63C U96C | -2.8
58 | G39U A41U C104U C123A | -2.95
59 | A37U U96G | -0.312
60 | G39A G71U A84U | -0.797
61 | G39U C114U G120A G127C | -2.98
62 | C40G C56U G77A | -0.862
63 | G39A G48C A50U C94U C114G | -4.57
64 | C40U G42A G63C U125G | -2.99
65 | C40A G71U U131A | -2.31
66 | U38C G45A U54A A83C G120U | -0.856
67 | G39A G42A | -2.67
68 | G39U G52A G63U | -2.37
69 | C40G U59A | -1.68
70 | G39A G69U U96A C104A G113A U126C | -3.63
71 | C40A G61A C73U C88U G113U | -6.64
72 | C40A C76U | -1.15

Row | Variant | polymerase ribozyme fitness (log ratio)
73 | C40U C56U A91C C97U C115U | -3.89
74 | G39A C72A A91U C94A | -2.84
75 | G39C C114U | -1.75
76 | G39C G48U C73A A100U | -2.09
77 | C40G C49A C64U A119U U126A | -3.13
78 | C40A A90C G93U | -1.13
79 | U38A C73G C101A A119U A121U G122U | -2.99
80 | G39A A83U | -0.65
81 | C40U A41C | -2.44
82 | U38G U55G A121C | 1.28
83 | A37U U55G | -0.465
84 | U38C C53G U59A U106A | -0.127
85 | C40U G44A G63A | -1.6
86 | C40A G45U A90G | -1.17
87 | C40G C53U | -0.175
88 | G39A G61C C72U G117A | -1.82
89 | G39C G52A | -1.32
90 | U38A U96G U112A G128A | -2.89
91 | C40A G45U G122U | -2.79
92 | C40G C49U A84U | -2.42
93 | G39A C64U | 0.0887
94 | C40U G44A A121U | 0.301
95 | C40G G71A U125A | -2.35
96 | G39A G51A | -2.96

Row | Variant | polymerase ribozyme fitness (log ratio)
97 | C40U C115A | -0.771
98 | C40G C53U G127C | -1.33
99 | C40A C72G A119U U130C U131A | -1.75
100 | C40A G48C A121C U129G | -0.25
101 | G39A U54A A83U U92G | -4.73
102 | G39C C56G | -1.53
103 | C40A C89U G117A A121G | -0.101
104 | C40A C82A U92A C102A C124U | -4.16
105 | G39U U92C | -1.97
106 | U38G G39U U54G G69U U87A G113C | -4.25
107 | C40A A41U A43U G44C | -3.15
108 | C40U A43G G61A C97U | -3.06
109 | C40U G47A U109A C114U | -6.24
110 | G39C G127C | -1.46
111 | C40U C114U | -2.55
112 | U38A G63U U131A | -2.72
113 | C40G A43G C114U | -4.36
114 | G39C G61C A83G | -3.89
115 | C40U G61U A119U G122U | -0.621
116 | C40A G45A | -2.54
117 | G39A U55A G77C A84C | -2.23
118 | G39A C64U C124A | 1.06
119 | C40G C62U C72A A83G | -3.49
120 | C40U G42A C114U | -1.92

Row | Variant | polymerase ribozyme fitness (log ratio)
121 | G39U C56G C72G U112C C124U | -1.3
122 | C40G C56G C124G G127U | -0.222
123 | C40U A46U C88U | -2
124 | C40G G63A U92G | -3.61
125 | C40G C49U | -2.95
126 | C40A C80U C89U G117A A121G | -0.909
127 | C40A U106A C124A | 1.38
128 | C40U C62U G135U | -1.68
129 | C40G G57A A84C U112A G122A | -3.59
130 | C40A C72A U81A A119U | -3.46
131 | G39A G63A | -1
132 | C40A C49U | -2.52
133 | C40G G117C | -3.98
134 | U38A G120A | -0.255
135 | G39U G60C | -0.892
136 | C40G G110A U132A | -1.48
137 | G39U U78C U96A | -4.33
138 | G39A C40A G45U | -4.88
139 | G39U A46G G63A C115G | -1.83
140 | C40A A46U C114A | -4.55
141 | G39C A50U G61A | -1.4
142 | C40G U92A | -3.01
143 | C40A C53U G63A | -2.24
144 | G39U G77C | -1.76

Row | Variant | polymerase ribozyme fitness (log ratio)
145 | G39A G52A C72U C85U A95C G113U | -5.94
146 | G39U G52U C70U | -2.08
147 | G39A C49A G122A C123G | 0.869
148 | G39U G122A | -1.25
149 | C40A G44C C72G G127A | -4.18
150 | G39A G61U | -0.116
151 | U38G U78G | -0.583
152 | C40G C53G G61C C104A G113A | -4.09
153 | G39C A41U G60A | -2.76
154 | G39U A105C | -3.64
155 | G39A G51U A83G A95C | -3.53
156 | G39U G60A U78C G127U | -2.06
157 | C40U C80U C86U A91C U112G | -3.87
158 | G39C U54A G58U C114A | -2.27
159 | U38G U92A U109G C114A G122U | -6.12
160 | C40G C102U U116G C124U | -4.94
161 | G39U A95U | -1.27
162 | C40G G44A C98U | -5.49
163 | G39A G44A G77A | -2.46
164 | G39U A46G C115G | -3.39
165 | C40U A43C C64U G93C C115A | -2.31
166 | U38A G61U | -0.881
167 | C40G C114G | -4.17

Source: the RNAGym collection of RNA variant scans (doi:10.1073/pnas.2313332121)
